Measured values from the nanobody polyreactivity screen of Harvey et al. (2022).

Test: yeast display, Sf9 membrane polyspecificity reagent, FACS + sequencing; frameworks hold sequencing errors
How it was run: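 Using colony PCR, genes from sorted yeast display clones were amplified, then sequenced on MiSeq at 2 × 250 and filtered by CDR length. The clones had been stained with 10% biotinylated, detergent-solubilized Sf9 membrane reagent for 1 hour at 4 °C and sorted by FACS into low and high (top ~1%) gates on anti-HA and streptavidin fluorescence. Polyreactivity labels come from the gate of origin.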

Sequence	polyreactivity (PSR sort gate)
QVQLVESGGGLVQAGGSLRLSCAASGFIFFRNAMGWYRQAPGKERELVAAISRSGGITYYADSVKGRFTISRDNAKNTVYLQMNSLKPEDTAVYYCNAAKASREQWTSFDYWGQGTQVTVSS	high polyreactivity
QVQLVESGGGLVQAGGSLRLSCAASGFIFFRYAMGWYRQAPGKERELVATITSSGRTNYADSVKGRFTISRDNAKNTVYLQMNSLKPEDTAVYYCAAQRTGARRYRYDSWGQGTQVTVSS	high polyreactivity
QVQLVESGGGLVQAGGSLRLSCAASGFIFFRYSMGWYRQAPGKERELVATINLGGGSTYADSVKGRFTISRDNAKNTVYLQMTSLKPEDTAVYYSAADVANSIYDYWGQGTLVTVSS	low polyreactivity
QVQLVESGGGLVQAGGSLRLSCAASGFIFFYYAMGWYRQAPGKERELVAAITRGGSTNYADSVKGRFTISRDNAKNTVYLQMNRLKPEDTAVYYCNKQYGRRHYWGDDYYWGQGTQVTVSS	low polyreactivity
QVQLVESGGGLVQAGGSLRLSCAASGFIFGDYAMGWYRQAPGKERELVAAISRSGGRTYYADSVKGRFTISRDNAKNTVYLQMNSLKPEDTAVYYCAKSSLNIYEYWGQGTQVTVSS	high polyreactivity
QVQLVESGGGLVQAGGSLRLSCAASGFIFGDYAMGWYRQAPGTERELVAAIFSGGSTYYADSVKGRFTISRDNAKNTVYLQMNSLKPEDTAVYYCAARFARYDWSMYYWGQGTQVTVSS	low polyreactivity
QVQLVESGGGLVQAGGSLRLSCAASGFIFGDYVMGRYRQAPGKEREVVAAITRRGGRTNYADSVKGRFTISRDNAKNTVFLQMNSLIPEDNAVFYCNAQSGVVADDYWGQGSQVTVSS	high polyreactivity
QVQLVESGGGLVQAGGSLRLSCAASGFIFGEYAMGWYRQAPGKERELVAAITWSGGSTSYADSVKGRFTSSRDNAKNTVYLQMNSLKPEDTAVYYCSARWHVYWGGFYYWGQVTQVTVSS	high polyreactivity
QVQLVESGGGLVQAGGSLRLSCAASGFIFGFYAMGWYRQAPGKERELVAAITSDGGTYYADSVKGRFTISRDNAKNTVYLQMNSLKPEDTAVYYCAARPPYTDSSPGERTYDYWGQGTQVTVSS	low polyreactivity
QVQLVESGGGLVQAGGSLRLSCAASGFIFGFYAMGWYRQAPWKERELVAAITSDGGTYYADSVKGRFTISRDNAKNTVYLQMNSLKPEDTAVYYCAADVLYEVFSWYVGYDYWGQGTQVTVSS	low polyreactivity
QVQLVESGGGLVQAGGSLRLSCAASGFIFGGNAMGWYRQAPGKERELVAAISSGGRTYYADSVKGRFTISRDNAKNTVYLQMNSLKPEDTAVYYCNAAEQKYSIYYAFDTGPYDYWGQGTQVTVSS	low polyreactivity
QVQLVESGGGLVQAGGSLRLSCAASGFIFGGYALGWYRQAPGKERELVAAISWSGDNTYYADSVKGRFTISRDNAKNTVYLQMNSLKPEDTAVYYCAADSYGQEYDYWGQGTQVTVSS	low polyreactivity
QVQLVESGGGLVQAGGSLRLSCAASGFIFGGYAMGWYRQAPGKERELVAAITRGGSTDYADSVKGRFTISRDNAKNTVYLQMNSLKPEDTAVYYCAKKTPGWGKFDYWGQGTQVTVSS	low polyreactivity
QVQLVESGGGLVQAGGSLRLSCAASGFIFGHNTMGWYRPAPGKERELVAAIDGGGGTSYADSVKGRFTISRDNAKNTVYLQMNSLKPEDTAVYYCAAYVAKGPLEYYYHYPYDYWGQGTQVTVSS	low polyreactivity
QVQLVESGGGLVQAGGSLRLSCAASGFIFGHYAMGWYRQAPGKERELVAAITRGGRTNYADSVKGRFTISRDNAKNTVYLQMNSLKPEDTAVYYCNALGKALYRSRFYYWGQGTQVTVSS	high polyreactivity
QVQLVESGGGLVQAGGSLRLSCAASGFIFGINAMGWYRQAPWKERELVAAISTGDRTNYADSVKGRFTISRDNAKNTVYLQMNSLKPEDTAVYYCAKDWRRNRPYEWTYDYWGQGTQVTVSS	low polyreactivity
QVQLVESGGGLVQAGGSLRLSCAASGFIFGKNALGWYRQAPGKERELVAVISWRGSSTYYADSVKGRFTISRDNAKNTVYLQMNSLKPEDTAVYYCAARYPARGTLYYWGQGTQVTVSS	low polyreactivity
QVQLVESGGGLVQAGGSLRLSCAASGFIFGLNAMGWYRQPPGKERELVAVISGRGRTYYADSVKGRFTISRDNAKNTVYLQMNSLKPEDTAVYYCNAVSSYGYDYWGQGTQVTVSS	high polyreactivity
QVQLVESGGGLVQAGGSLRLSCAASGFIFGNYVMGWYRQAPGKERELVAAITNGGGNTYYADSVKGRFTISRDNAKNTVYLQMNSLKPEDTAVYYCHPLRYYYWGQGTQVTVSS	high polyreactivity
QVQLVESGGGLVQAGGSLRLSCAASGFIFGQYAMGWYRQAPGKERELVAAISWSGGRTNYADSVKGRFTISRDNAKYTVYLQMNSLKPEDTAVSYCAARKGKYPQYTYGYWGQGTQVSVSS	high polyreactivity
QVQLVESGGGLVQAGGSLRLSCAASGFIFGRNAMGWYRQAPGKERELVAVISKRSGNTYYADSVKGRFTISRDNAKNTVYLQMNSLKPEDTAVYYCNAVDQKLLRYDYWGQGTQVTVSS	high polyreactivity
QVQLVESGGGLVQAGGSLRLSCAASGFIFGRNVMGWYRQAPGKERELVASISRSGGRTTYADSVKGRFTISRDNAKNTVYLLMNSLKPEDTAVYYCAKGQYQWERYVSHADYDWGQVTQVTVSS	high polyreactivity

Sequence	polyreactivity (PSR sort gate)
QVQLVESGGGLVQAGGSLRLSCAASGFIFGRYAMGWYRQAPGKERELVAAISRSGGSTHYADSVKGRFTISRDNAKNTVYLQMNSLKQVDTAVYYCNTYLTIWGYFYGYDYWGQGTQVTVSS	high polyreactivity
QVQLVESGGGLVQAGGSLRLSCAASGFIFGRYARGWYRQAPVKERELVAAINWSGGSTYYADSVKGRFTISRDNAKNTVYLQMNSLKPEDTAVYYCAARTSRRDGGGSYDYWGQGTQVTVSS	high polyreactivity
QVQLVESGGGLVQAGGSLRLSCAASGFIFGSNAMGWYRQAPGKERELVAAISRSGGSTYYADTVKGRFTISRDNAKNTVYLQMNSLKPEDTAVYYCNVDLWPFVYSWWSYDYWGQGTQVTVSS	high polyreactivity
QVQLVESGGGLVQAGGSLRLSCAASGFIFGSNVMGWYRQAPGKERELVAAITSGSRTYYADSVKGRFTISRDNAKNTVYLQMNSLKPEDTAVYYCAKRNPIKYYGGGYWGQGTQVTVSS	high polyreactivity
QVQLVESGGGLVQAGGSLRLSCAASGFIFGSYAMGWYRQAPGKERELVAAISDSGDSTYYADSVKGRYTISRDNAKNTVYLQMNSLKPEDTAVYYCNRGYRWRRCENYYWGQGTQVTVSS	high polyreactivity
QVQLVESGGGLVQAGGSLRLSCAASGFIFGSYTMGWYRQAPGKERELVAAISSSVGRTYYADSVKGRFTISRDNAKNTVYLQMNSLKPEDTAVYYCAARRHGRVDYSQGSRESDYWGQGTQVTVSS	high polyreactivity
QVQLVESGGGLVQAGGSLRLSCAASGFIFGTYAMGWYRQAPGKEWELVAAISSGGSTFYADSVKGRFTISRDNEKNTVYLQMYSLKPEDTAVYYCAKEGGTYRIFNYWGQGTQVTVSS	low polyreactivity
QVQLVESGGGLVQAGGSLRLSCAASGFIFGVYAMGWYRQAPGKERELVAAITSSGTSTYYADSVKGRFTISRDNAKNTVYLQMNSLKPEDTAVYYCNKSGYIYHRKLWTPYYYWGQGTQGTVSS	low polyreactivity
QVQLVESGGGLVQAGGSLRLSCAASGFIFGWYAMGWYRQAPGKERELVAAISRSGGSTYYADSVKGRFTISRDNAMNTVYLQMNCLKPEDTAVYYCAAQRSYAYEYWGQGTQVTVSS	high polyreactivity
QVQLVESGGGLVQAGGSLRLSCAASGFIFGYNAMGWYRQAPGKERELVAAIDWSGTSTYYADSVKGRFTISRDNAKNTVYLQMNSLKPEDTAVYYCAADTSTWAHTRGYDYWGQGTQVTVSS	high polyreactivity
QVQLVESGGGLVQAGGSLRLSCAASGFIFGYNGMGWYRQAPGKERELVAYADSVKGRFTISRDNAKNTVYLQMNSLKPEDTAVYFCAADRGYVWRYDYWGQGTQVTVSS	low polyreactivity
QVQLVESGGGLVQAGGSLRLSCAASGFIFGYYAMGWYIPAPGKERELVAAISGSGGSTYYADSVKGRFTISRDNAKNTVYLQMNSLKPEDTAVYYCAAYGRAPGTSQRYDYRGQGTQVTVSS	high polyreactivity
QVQLVESGGGLVQAGGSLRLSCAASGFIFGYYAMGWYRQAPGKERELVAAISFSGDRTYYADSVKGRFTISRDNAKNTVYLQMNSLKPEDTAVYYCNAKRWGDYTQYRYNYWGQGTQVTVSS	high polyreactivity
QVQLVESGGGLVQAGGSLRLSCAASGFIFGYYAMGWYRQAPGKERELVAAISKSGGSTYYADSVKGRFTISRDNAKNTVYLQMNSLKPEDTAVYYCAARYTRPFGPFDYWGQGTQVTVSS	low polyreactivity
QVQLVESGGGLVQAGGSLRLSCAASGFIFGYYTMGWYRQAPGKERELVASITRGGSTNYADSVKGRFTISRDNAKNTVYIQMNSLKPEDTAVYYCAKRYAQTYSVSRYYYWGQGTQVTVSS	high polyreactivity
QVQLVESGGGLVQAGGSLRLSCAASGFIFGYYTMGWYRQAPGKERELVASITRGGSTNYADSVKGRFTISRDNAKYTVYLQMNSLNPEDTAVYYCAKRYAQTYSVSRYYYWGQGTQVTVSS	high polyreactivity
QVQLVESGGGLVQAGGSLRLSCAASGFIFHFNAMGWYRQAPGKERELVAAISRTGGTTYYADSVKGRFTISRDNAKNTVYLQMNSLKPEVTAVYYCAAYSTYVQHYDYWGQGTQVTVSS	high polyreactivity
QVQLVESGGGLVQAGGSLRLSCAASGFIFHLYGMAWYRQAPGKERELVAAISSGGRAYYADSVKGRFTISRDNAKNTVYLQMNSLKPEDTAVYDCAVYVAYLYSYYYWGQGTQVTVSS	low polyreactivity
QVQLVESGGGLVQAGGSLRLSCAASGFIFHLYSLGWYRQAPGKERELVAVISGGGSTYYADSVKGRFTISRDNAKNTVYLQMNSLKPEDTAVYYCNVGRYYRYATGGDYWGQGTQVTVSS	high polyreactivity
QVQLVESGGGLVQAGGSLRLSCAASGFIFHPYAMGWYRQAPGKERELVATITWSDDSTYYADSVKGRFTISRDNAKNTVYLQMNSLKPEDTAVYYCAARHKQHNRYDYWGQGTQVTVSS	low polyreactivity
QVQLVESGGGLVQAGGSLRLSCAASGFIFHRYAMGWYRQAPGKERELVASITRSGGSTYYADSVKGRFTISRDNAKNTVYLQMISLKPEDTAVYYCAAQLPSYYKYPRHDYWGQGTQVTVSS	high polyreactivity
